From the supplement of paper PMC9170038

Tested on: MS2 coat protein
Experiment: apparent KD of MS2 coat protein; designed switch direction (-1 OFF switch, 1 ON switch): -1; higher = weaker reporter binding
Procedure, shortened: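 Transcription of designed RNA switches on Illumina chips was done by stalled E. coli RNA polymerase. SNAP-549-labelled MS2 coat protein was then titrated in doubling steps from 0.7 or 1.5 nM to 3 µM, with steps of 0.8–1.5 h at the lowest and 10–20 min at the highest concentration. The per-design median over clusters of curve-fitted normalised fluorescence is reported as apparent KD.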

[1] = Eterna round: R95, input ligand: FMN 200 uM
[2] = Eterna round: R95, input ligand: microRNA oligo, concentration not stated
[3] = Eterna round: R95, input ligand: none
[4] = input ligand: microRNA oligo, concentration not stated

Sequence	apparent KD of MS2 coat protein [1] [µM]	apparent KD of MS2 coat protein [2] [µM]	apparent KD of MS2 coat protein [3] [µM]	apparent KD of MS2 coat protein (input ligand: FMN 200 uM) [µM]	apparent KD of MS2 coat protein (input ligand: none) [µM]	apparent KD of MS2 coat protein [4] [µM]
CGUGACUCAGGAUAUCGAUUAUAUCACAUGAGGAUCACCCAUGUCCAGCGAAAGCUGGAGUGAGAAGGGAGUCACG [Fiskers Ex 5 - 49] (puzzle: Exclusion 5)	0.0476	0.107	0.109			
AGUCCACUUACAAGCUUUUACAUGAGGAUCACCCAUGUGUGGGACCCUAAGGGUGCUCAUGACCGCUCCAUACUCUC [Eternabot (L1) Solution 4] (Eterna round: R97, puzzle: Sensor, turn-off variant 1)				0.24	0.254	
GGUCAGCUAGGAUAUACAUGAGGAUCACCCAUGUACUGACCCAUGCGGGAGCCUGCAUGUAGAAGGAGCAAUAU [Onzatiqula] (Eterna round: R97, puzzle: Exclusion 3)				0.037	0.0553	
AUUAGCGUAGGAUAUUGAUACAUGUACAUGAGGAUCACCCAUGUGAGGUGAGUCUUCGAUUAAGAAGGGCGCAGAA [EX5 #39] (Eterna round: R97, puzzle: Exclusion 5)				0.0826	1.21	
UGCAUGGUAGGAUAUACGGAGCAUUAGGGUUUGUUGUGUGGACAUGAGGAUCACCCAUGUAGAAGGGCCGUGCU [JL-ex2-2.17 mat747 mod] (puzzle: Exclusion 2)		0.0355				
GAUUAAUUAAUUAAUUAAUACAUGAGGAUCACCCAUGUAAUUUAAGAUCCUUAUACAAGCUUUGAUCUCGUAAUUAA [Stov1/4-A3] (Eterna round: R97, puzzle: Sensor, turn-off variant 1)				0.12	0.12	
AGUACUAACACGUGUGUGUUAGUACAAUAAGCUUGUGAAACAUGAGGAUCACCCAUGUCCUCAUAAGCUCGUCUUAU [salish99_TOv2_r3_074] (puzzle: Sensor v3, turn-off variant 2)	0.0161	0.813	0.015			
CGCUGGACAGGAUAUGUUCUUGGGCACUUGAGGAUCACCCAAGUCAUCAAGAAAACAGGCACAGAAGGGUUUAUGG [salish99_ex5_r4_020] (Eterna round: R97, puzzle: Exclusion 5)				0.0321	0.0241	
GAUCAACAUGAGGAUCACCCAUGUGAGGAUAUGAUACUAUGUACUUCGGUACAUAGUAUCAGAAGGCAUAUGAA [Ex1-3: 36] (puzzle: Exclusion 1)		0.052				
GCAUGUUAUGUCAGGAUAUACCUAUGGAUACAUAGGUAGAAGGGACAUGAGGAUCACCCAUGUCCUAAUCAUGC [Fiskers BMX 4 - 23] (puzzle: Brourd's mod of Exclusion 4)		0.0125				
ACGUUGUCAGGAUAUCGUUAAUUUAGUUGUUUGUAUUAGUUCGAGAAGGGACAUGAGGAUCACCCAUGUUUGAA [Ex4 #34] (Eterna round: R97, puzzle: Exclusion 4)				0.0362	0.0315	
AGUACUAACACGAGAGUGUUAGUACAAUAAGCUUGUGUUACAUGAGGAUCACCCAUGUCCUCAUAAGCUCGUCUUAU [Mat - Sensor v3 - Turn-off var 2 - D53] (puzzle: Sensor v3, turn-off variant 2)	0.133	0.246	0.115			
UUUUGGCAAGCGAGAUCCCACAUGAGGAUCACCCAUGUUGACCAUGGUUUCCAUGGUCAUUUUGCUCGUCUUGUGUG [jl TITIN mod 1] (Eterna round: R97, puzzle: Sensor, turn-off variant 1)				0.0313	0.0318	
UAUUAAACAAGCAGAUCCCACAUGAGGAUCACCCAUGUGCUCGUCUUAUAAGGUACUGUGACGAUAGUCACGGUACC [Mat - Sensor, turn-off var - Eli Mod - D62] (Eterna round: R97, puzzle: Sensor, turn-off variant 1)				0.049	0.0545	
GCUCGUACGGAGGAUAUAGAUUUCGGAAACCGACUAGAAGGCCGAACAUGAGGAUCACCCAUGUGAUUUAUAUC [Gesozarequ] (puzzle: Exclusion 6)	0.0232	0.0189	0.0234			
UUCGGCGCAGGAUAUACAGUUUUGUGUUGAAUCGGCGCGAAACAUGAGGAUCACCCAUGUAGAAGGGUGUUGAA [-24.2, -22.3 kcal, A 27%] (Eterna round: R97, puzzle: Exclusion 2)				0.736	1.22	
AAUGUCUGAGGAUAUCGUUUUUUGUACAUGAGGAUCACCCAUGUCCAAUUUUGUAUAUUACGAGAAGGCAGUGGAA [JR_E5_Sub089] (Eterna round: R96, puzzle: Exclusion 5)				0.0239	0.015	0.0107

Sequence	apparent KD of MS2 coat protein [1] [µM]	apparent KD of MS2 coat protein [2] [µM]	apparent KD of MS2 coat protein [3] [µM]	apparent KD of MS2 coat protein (input ligand: FMN 200 uM) [µM]	apparent KD of MS2 coat protein (input ligand: none) [µM]	apparent KD of MS2 coat protein [4] [µM]
AUUUAGAGAGGAUAUAUUAUGUGAAACAUGAGGAUCACCCAUGUAAUAUGAUGGAUGUAAAUAGAAGGCUCAUUUA [Mat - Exclusion 5 - JL mod - D23] (puzzle: Exclusion 5)	0.0329	0.0435	0.0564			
ACUUCGUCAGGAUAUCGAGUGACCAAGUACACUGGCUUGGCUGAGAAGGGACAUGAGGAUCACCCAUGUGGGAG [Eternabot (L1) Solution 52] (Eterna round: R97, puzzle: Exclusion 4)				0.356	0.187	
AGUGUGUGGCAGGAUAUGCGAUUUGUAGGUGAAGCAGAAGGGUCUACAUGAGGAUCACCCAUGUGUGCGGUUGA [Ex6 #18] (Eterna round: R97, puzzle: Exclusion 6)				0.457	0.216	
GUGAUCUAUCAUGGGAUAAACAUGAGGAUCACCCAUGUAAACAAGUUUUUUGCUCGUCUUAUAAUAAGAUAGAUCAC [Antenna 2 - Jieux - Sensor, turn-off variant 1] (Eterna round: R97, puzzle: Sensor, turn-off variant 1)				0.0211	0.0209	
UGUUGUUGCGUAGGAUAUUGCCAACAGGCAGUAGGAUAUGCGAAAGCAGAAGGACCGCCAACAGGCGAGAAGGACGGGACAACU [pwkr exNG2 2xF7 2xFMN.13] (Eterna round: R96, puzzle: Exclusion NG 2)				0.177	0.0726	0.0394
CUUAGACAUGAGGAUCACCCAUGUGAGGAUAUGAUGCGAAUAAAGAAAGAAGAAAGCAUCAGAAGGCACAUAUG [Fiskers Ex 1 - 1] (puzzle: Exclusion 1)	0.111	0.121	0.0979			
UUUUUACAUGAGGAUCACCCAUGUGAGGAUAUGAGGGUUAGCUUAAAUGGGCUGACUUUCAGAAGGCACAUGAA [JR_Ex1_Sub059] (Eterna round: R97, puzzle: Exclusion 1)				0.28	0.128	
CACGAAUAGUGAGGAUAUGUGCGACAAAGUUGCACAGAAGGCACAUGAGGAUCACCCAUGUAAGCUAGGUCGAAAGACCUAGCG [Omei Exc(NG)1 A] (Eterna round: R96, puzzle: Exclusion NG 1)				0.0374	0.0242	0.0153
ACUAAGGUAGGAUAUACGUGCGUGAUCGUGCCUUAGCUGGCACAUGAGGAUCACCCAUGUAGAAGGGCCAGACA [Esraleon] (Eterna round: R97, puzzle: Exclusion 2)				0.0174	0.0198	
UAUUCGCAAGUGAGAUCCCACAUGAGGAUCACCCAUGUGCUCGUCUUAUAAGGUACUGUGACGAAAGUCACGGUACC [Sensor 3, v1 - 91 v23] (Eterna round: R97, puzzle: Sensor, turn-off variant 1)				0.0324	0.0361	
UUCCUACAUGAGGAUCACCCAUGUCAGGAUAUCUCCUCACUGCGCUUGCGCAGUGAAUAGAGAAGGGACAGGCU [JL ViennaUCT Aner mod 1] (puzzle: Exclusion 1)		0.0159				
AAAAUGGUCUAGGAUAUGACAAAUCUGAGCACGUCAGAAGGAGACACAUGAGGAUCACCCAUGUGGGUGCGAAA [Erteedza] (Eterna round: R96, puzzle: Exclusion 6)						0.0293
CUGGACUGAGGAUAUUGUGCUGCUGACAUGAGGAUCACCCAUGUAUGUUAACUCGGCCGUCGAGAAGGCAGACAGG [BotMod 18 - Jieux - Exclusion 5] (Eterna round: R97, puzzle: Exclusion 5)				0.0165	0.0191	
AAAUAACAAGCGAGAUCCUACAUGAGGAUCACCCAUGUGCUCGUCUUAAUAAGUACUAUCACGAAAGUGAUAGUACA [Mat - Sensor v3 - turn-off var 1 - Eli Mod - D67] (Eterna round: R96, puzzle: Sensor v3, turn-off variant 1)				0.0158	0.0182	0.333
CCUCUACAUGAGGAUCACCCAUGUGAGGAUAUAAGAUUGCGAAUUCCGCACUACGGUCUUAGAAGGCGCGUGGA [Riarve] (Eterna round: R96, puzzle: Exclusion 1)				0.0313	0.0203	0.0148
GCCAGAGCAGGAUAUUCAAUAUCACACAUGAGGAUCACCCAUGUCCGGCGAAAGCUGGAGGGAGAAGGGCUCUGGC [Fiskers Ex 5 - 14] (puzzle: Exclusion 5)		0.0494				
CUCUCACAUGAGGAUCACCCAUGUCAGGAUAUCUCAGUGCAUCCACACGGACGCAUCAAGAGAAGGGACAAAAC [Vinxlusion 2 - Jieux - Exclusion 1] (Eterna round: R97, puzzle: Exclusion 1)				0.095	0.0591	
